Reference: patent US20210115113A1 (CITY OF HOPE, published 2021)

T1: EBV gp350 expressed on the surface of stably transfected CHO cells (Epstein-Barr virus, UniProt P03200 1-907)
T1 construct: also called native gp350; gp350 expressing CHO cells
T1 sequence: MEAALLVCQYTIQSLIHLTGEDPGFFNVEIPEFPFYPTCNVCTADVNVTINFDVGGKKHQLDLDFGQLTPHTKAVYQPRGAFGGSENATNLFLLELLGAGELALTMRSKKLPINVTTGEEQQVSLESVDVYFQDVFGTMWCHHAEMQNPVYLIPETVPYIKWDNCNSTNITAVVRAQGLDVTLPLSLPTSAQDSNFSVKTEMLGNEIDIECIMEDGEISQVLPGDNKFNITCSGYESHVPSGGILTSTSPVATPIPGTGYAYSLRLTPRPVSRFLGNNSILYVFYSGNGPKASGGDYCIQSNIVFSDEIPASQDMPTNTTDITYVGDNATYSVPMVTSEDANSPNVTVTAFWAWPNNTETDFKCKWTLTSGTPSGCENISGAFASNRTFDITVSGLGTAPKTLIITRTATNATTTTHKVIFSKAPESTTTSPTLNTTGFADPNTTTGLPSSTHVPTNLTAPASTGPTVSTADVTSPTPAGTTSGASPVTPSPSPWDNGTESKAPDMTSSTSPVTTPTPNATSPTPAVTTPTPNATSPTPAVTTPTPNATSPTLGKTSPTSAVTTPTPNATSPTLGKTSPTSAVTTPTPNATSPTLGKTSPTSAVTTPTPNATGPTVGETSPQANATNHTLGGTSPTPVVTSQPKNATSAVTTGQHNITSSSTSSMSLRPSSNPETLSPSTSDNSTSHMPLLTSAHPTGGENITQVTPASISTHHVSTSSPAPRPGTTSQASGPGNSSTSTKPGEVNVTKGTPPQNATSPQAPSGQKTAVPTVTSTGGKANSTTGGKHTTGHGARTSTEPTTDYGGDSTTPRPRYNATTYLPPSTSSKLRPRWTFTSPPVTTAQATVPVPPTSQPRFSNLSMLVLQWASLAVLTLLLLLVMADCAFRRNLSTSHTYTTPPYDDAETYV


Assays:
[1] = target: T1, EBV gp350 expressed on the surface of …; assay: cross-competition on gp350-CHO cells (flow), unlabeled 500 µg/ml; competitor: biotinylated HB5
[2] = target: T1, EBV gp350 expressed on the surface of …; assay: cross-competition on gp350-CHO cells (flow), unlabeled 500 µg/ml; competitor: biotinylated m72A1
[3] = target: T1, EBV gp350 expressed on the surface of …; assay: cross-competition on gp350-CHO cells (flow), unlabeled 500 µg/ml; competitor: biotinylated HB17
[4] = target: T1, EBV gp350 expressed on the surface of …; assay: cross-competition on gp350-CHO cells (flow), unlabeled 500 µg/ml; competitor: biotinylated h72A1
[5] = target: T1, EBV gp350 expressed on the surface of …; assay: cell competition (flow), unlabeled 125 µg/ml; competitor: biotinylated m72A1 1 µg/ml
[6] = target: T1, EBV gp350 expressed on the surface of …; assay: cross-competition on gp350-CHO cells (flow), unlabeled 500 µg/ml; competitor: biotinylated HB1
[7] = target: T1, EBV gp350 expressed on the surface of …; assay: cell competition (flow), unlabeled 67.5 µg/ml; competitor: biotinylated m72A1 1 µg/ml
[8] = target: T1, EBV gp350 expressed on the surface of …; assay: cell competition (flow), unlabeled 250 µg/ml; competitor: biotinylated m72A1 1 µg/ml
[9] = target: T1, EBV gp350 expressed on the surface of …; assay: cross-competition on gp350-CHO cells (flow), unlabeled 500 µg/ml; competitor: biotinylated HB11
[10] = target: T1, EBV gp350 expressed on the surface of …; assay: cell competition (flow), unlabeled 500 µg/ml; competitor: biotinylated m72A1 1 µg/ml
[11] = target: T1, EBV gp350 expressed on the surface of …; assay: cross-competition on gp350-CHO cells (flow), unlabeled 500 µg/ml; competitor: biotinylated HB20
[12] = target: T1, EBV gp350 expressed on the surface of …; assay: cross-competition on gp350-CHO cells (flow), unlabeled 500 µg/ml; competitor: biotinylated 54A1

Binder | % inhibition of biotinylated nAbs [1] [%] | % inhibition of biotinylated nAbs [2] [%] | % inhibition of biotinylated nAbs [3] [%] | % inhibition of biotinylated nAbs [4] [%] | % inhibition of biotinylated nAbs [5] [%] | % inhibition of biotinylated nAbs [6] [%] | % inhibition of biotinylated nAbs [7] [%] | % inhibition of biotinylated nAbs [8] [%] | % inhibition of biotinylated nAbs [9] [%] | % inhibition of biotinylated nAbs [10] [%] | % inhibition of biotinylated nAbs [11] [%] | % inhibition of biotinylated nAbs [12] [%]
HB5 (antibody, V domains shown, also called mHB5) VH: AELVRPGASVKISCKAFGYTFTNHNINWVKQRPGQGLDWIGYINPYNDYTSYNQKFKGKATLTVDKSSNTAYMELSSLTSEDSAVYYCARSEGWLRRGAWFAYWGQGTLVTVSA VL: AILSVSPGERVSFSCRASQSIGTSIHWYQQRTNDSPRLLIKYASESISGIPPRFSGSGSGTDFTLSINSVESEDIADYHCQQSNSWPMLTFGAGTKLELKR | 98 | 97 | 9 | 97 | 92 | 92 | 94 | 93 | 93 | 95 | 73 | 13
HB17 (antibody, V domains shown) VH: AELVIPGASVKVSCKASGYTFTSYWIHWVKQWPGQGLEWIGEINPNNGHTNYNEKFKSKATLTVDKSSSTAYMQLSSLTSEDSAVYYCARNLFYYSRPDYWGQGTSVTVSS VL: SSLSASLGDRVTISCRASQDIGNYLNWYQQKPDGTIKLLIYYTSRLHSGVPSRFSGSGSGTDYSLTISNLEEEDIATYFCQQGNTLPPTFGGGTKLEIKR | 32 | 24 | 86 | 16 | 6 | 23 | 0 | 32 | 11 | 32 | 17 | 0
murine 72A1 (m72A1), anti-EBV gp350 neutralizing antibody from hybridoma HB168 (antibody, V domains shown, also called nAb-72A1; mouse 72A1) VH: EVQLQQSGPELVKPGTSMKISCKASGSSFTDYTMNWMKQSHGKNLEWIGLINPYNGGTRYNQKFKGKATLTLDKSSSTAYMEVLSLTSEDSAVYYCAGGLRRVNWFAYWGQGTLVSVSA VL: QAVLTQESALTTSPGETVTLTCRSSTGAVTTSNYANWVQEKPDHLFTGLIGGTNNRVPGVPARFSGSLIGDKAALTITGAQTEDEAIYFCVLWHSNHWVFGGGTKLTVL | 97 | 98 | 37 | 98 | 94 | 82 | 97 | 93 | 90 | 91 | 31 | 1
